# Test results as given in paper PMC8880170.
# Tests used:
# [1] = biological target: SARS-CoV-2 nsp15 N164A (SARS-CoV-2); assay: SEC; […] (20 mM Tris-HCl pH 8, 150 mM NaCl); […]
# [2] = biological target: SARS-CoV-2 nsp15 K290A (SARS-CoV-2); assay: SEC; […] (20 mM Tris-HCl pH 8, 150 mM NaCl); […]
Substance,stoichiometry N [1],stoichiometry N [2]
SARS-CoV-2 nsp15 N164A (enzyme),6,
SARS-CoV-2 nsp15 K290A (enzyme),,6
